Source: patent US20240252628A1 (ACCELERON PHARMA, published 2024)
Like-named read-outs stand apart in the source and are kept apart here.

B1: BMP10 (ligand, UniProt O95393 317-424, looked up)
chain: NAKGNYCKRTPLYIDFKEIGWDSWIIAPPGYEAYECRGVCNYPLAEHLTPTKHAIIQALVHLKNSQKASKACCVPTKLEPISILYLDKGVVTYKFKYEGMAVSECGCR
B2: ALK4-Fc homodimer (Fc fusion, not shown: a dimerising Fc or GST)
chain: SGPRGVQALLCACTSCLQANYTCETDGACMVSIFNLDGMEHHVRTCIPKVELVPAGKPFYCLSSEDLRNTHCCYTDYCNRIDLRVPSGHLKEPEHPSMWGPVE
B3: ActRIIB-Fc:ALK4-Fc heterodimer (Fc fusion)
chain 1: GRGEAETRECIYYNANWELERTNQSGLERCEGEQDKRLHCYASWRNSSGTIELVKKGCWLDDFNCYDRQECVATEENPQVYFCCCEGNFCNERFTHLPEAGGPEVTYEPPPTAPTGGGTHTCPPCPAPELLGGPSVFLFPPKPKDTLMISRTPEVTCVVVDVSHEDPEVKFNWYVDGVEVHNAKTKPREEQYNSTYRVVSVLTVLHQDWLNGKEYKCKVSNKALPAPIEKTISKAKGQPREPQVYTLPPSRKEMTKNQVSLTCLVKGFYPSDIAVEWESNGQPENNYKTTPPVLKSDGSFFLYSKLTVDKSRWQQGNVFSCSVMHEALHNHYTQKSLSLSPGK
chain 2: SGPRGVQALLCACTSCLQANYTCETDGACMVSIFNLDGMEHHVRTCIPKVELVPAGKPFYCLSSEDLRNTHCCYTDYCNRIDLRVPSGHLKEPEHPSMWGPVETGGGTHTCPPCPAPELLGGPSVFLFPPKPKDTLMISRTPEVTCVVVDVSHEDPEVKFNWYVDGVEVHNAKTKPREEQYNSTYRVVSVLTVLHQDWLNGKEYKCKVSNKALPAPIEKTISKAKGQPREPQVYTLPPSREEMTKNQVSLTCLVKGFYPSDIAVEWESNGQPENNYDTTPPVLDSDGSFFLYSDLTVDKSRWQQGNVFSCSVMHEALHNHYTQKSLSLSPG
notes: the receptor domains are the same in all; also called ALK4-Fc:ActRIIB-Fc heterodimer; ActRIIB-Fc:ALK4-Fc heterodimeric complex
B4: ActRIIB-Fc:ALK7-Fc heterodimer (Fc fusion)
chain 1: B3 chain 1
chain 2: GLKCVCLLCDSSNFTCQTEGACWASVMLTNGKEQVIKSCVSLPELNAQVFCHSSNNVTKTECCFTDFCNNITLHLPTASPNAPKLGPMETGGGTHTCPPCPAPELLGGPSVFLFPPKPKDTLMISRTPEVTCVVVDVSHEDPEVKFNWYVDGVEVHNAKTKPREEQYNSTYRVVSVLTVLHQDWLNGKEYKCKVSNKALPAPIEKTISKAKGQPREPQVYTLPPSREEMTKNQVSLTCLVKGFYPSDIAVEWESNGQPENNYDTTPPVLDSDGSFFLYSDLTVDKSRWQQGNVFSCSVMHEALHNHYTQKSLSLSPG
notes: also called ActRIIB-Fc:ALK7 heterodimer; ActRIIB-Fc:ALK7-Fc heterodimeric complex
B5: GDF11 (ligand, UniProt O95390 299-407, looked up)
chain: NLGLDCDEHSSESRCCRYPLTVDFEAFGWDWIIAPKRYKANYCSGQCEYMFMQKYPHTHLVQQANPRGSAGPCCTPTKMSPINMLYFNDKQQIIYGKIPGMVVDRCGCS
notes: also called BMP11
B6: ALK7-Fc homodimer (Fc fusion, not shown: a dimerising Fc or GST)
chain: LSPGLKCVCLLCDSSNFTCQTEGACWASVMLTNGKEQVIKSCVSLPELNAQVFCHSSNNVTKTECCFTDFCNNITLHLPTASPNAPKLGPME
notes: the whole extracellular entry is named

Tests used:
ActRIIA-mFc [1] = target: T1, ActRIIA-mFc (human, UniProt P27037 21-135); test: similar binding assay (SPR)
T1 construct: not shown: minimal linker and mouse Fc domain
T1 sequence (P27037 21-135): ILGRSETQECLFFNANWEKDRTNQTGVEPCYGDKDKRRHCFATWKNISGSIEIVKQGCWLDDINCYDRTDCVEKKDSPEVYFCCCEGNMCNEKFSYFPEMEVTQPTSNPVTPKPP
Description: (§1) GDF11 or activin A were immobilized on a Biacore™ CM5 chip using standard amine-coupling procedure. ActRIIA-hFc and ActRIIA-mFc proteins were loaded onto the system, and binding was measured. […] See FIG. 15A-B. Using a similar binding assay, ActRIIA-hFc was determined to have high to moderate affinity for other TGF-beta superfamily ligands including, for example, activin B, GDF8, BMP6, and BMP10. ActRIIA-mFc behaved similarly.

activin B [2] = target: T2, activin B (UniProt P09529 293-407); test: SPR (Biacore), anti-Fc capture of receptor
T2 sequence (looked up): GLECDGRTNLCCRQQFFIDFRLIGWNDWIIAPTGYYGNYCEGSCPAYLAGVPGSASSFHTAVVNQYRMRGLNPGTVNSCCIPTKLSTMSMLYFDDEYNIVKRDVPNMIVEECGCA
Description: (§2) A Biacore™-based binding assay was used to compare ligand binding selectivity of the ActRIIB-Fc:ALK4-Fc heterodimeric complex described above with that of ActRIIB-Fc and ALK4-Fc homodimer complexes. The ActRIIB-Fc:ALK4-Fc heterodimer, ActRIIB-Fc homodimer, and ALK4-Fc homodimer were independently captured onto the system using an anti-Fc antibody. Ligands were injected and allowed to flow over the captured receptor protein. Results are summarized in the table below, in which ligand off-rates (kd) most indicative of effective ligand traps are denoted in bold.

activin A [3] = target: T3, activin A (UniProt P08476 311-426); test: SPR (Biacore), anti-Fc capture of receptor
T3 construct: The same holds for m2-m11
T3 sequence (looked up): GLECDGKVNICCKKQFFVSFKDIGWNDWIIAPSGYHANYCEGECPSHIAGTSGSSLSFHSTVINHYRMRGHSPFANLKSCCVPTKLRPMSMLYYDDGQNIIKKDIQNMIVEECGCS
Description: as §2

BMP9 [4] = target: T4, BMP9 (UniProt Q9UK05 320-429); test: SPR (Biacore), anti-Fc capture of receptor
T4 construct: also called GDF2
T4 sequence (looked up): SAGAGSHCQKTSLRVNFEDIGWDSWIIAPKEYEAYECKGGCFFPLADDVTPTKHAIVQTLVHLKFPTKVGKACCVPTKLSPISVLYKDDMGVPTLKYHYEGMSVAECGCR
Description: as §2

BMP6 [5] = target: T5, BMP6 (UniProt P22004 382-513, limits assumed); test: SPR (Biacore), anti-Fc capture of receptor
T5 sequence (looked up): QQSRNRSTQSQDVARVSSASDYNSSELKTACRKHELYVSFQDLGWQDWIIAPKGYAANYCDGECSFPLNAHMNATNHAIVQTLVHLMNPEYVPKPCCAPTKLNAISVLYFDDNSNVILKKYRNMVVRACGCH
Description: as §2

BMP10 [6] = target: B1; test: SPR (Biacore), anti-Fc capture of receptor
Description: as §2

GDF11 [7] = target: B5; test: SPR (Biacore), anti-Fc capture of receptor
Description: as §2

GDF8 [8] = target: T6, GDF8 (UniProt O14793 267-375); test: SPR (Biacore), anti-Fc capture of receptor
T6 construct: also called myostatin
T6 sequence (looked up): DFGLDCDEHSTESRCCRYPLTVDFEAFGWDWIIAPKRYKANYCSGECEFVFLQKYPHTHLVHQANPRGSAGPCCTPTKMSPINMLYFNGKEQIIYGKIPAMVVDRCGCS
Description: as §2

GDF3 [9] = target: T7, GDF3 (UniProt Q9NR23 251-364); test: SPR (Biacore), anti-Fc capture of receptor
T7 sequence (looked up): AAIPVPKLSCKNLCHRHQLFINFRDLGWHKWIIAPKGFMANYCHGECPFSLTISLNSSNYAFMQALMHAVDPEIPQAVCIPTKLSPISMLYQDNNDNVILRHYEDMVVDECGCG
Description: as §2

BMP9 [10] = target: T4, BMP9; test: SPR (Biacore), anti-Fc capture of receptor; remark: listed apart in the source
Description: (§3) A Biacore™-based binding assay was used to compare ligand binding selectivity of the ActRIIB-Fc:ALK7-Fc heterodimeric complex described above with that of ActRIIB-Fc and ALK7-Fc homodimeric complexes. The ActRIIB-Fc:ALK7-Fc heterodimer, ActRIIB-Fc homodimer, and ALK7-Fc homodimer were independently captured onto the system using an anti-Fc antibody. Ligands were injected and allowed to flow over the captured receptor protein. Results are summarized in the table below, in which ligand off-rates (kd) most indicative of effective ligand traps are denoted by in bold.

activin C = target: T8, activin C (UniProt P55103 237-352); test: SPR (Biacore), anti-Fc capture of receptor
T8 sequence (looked up): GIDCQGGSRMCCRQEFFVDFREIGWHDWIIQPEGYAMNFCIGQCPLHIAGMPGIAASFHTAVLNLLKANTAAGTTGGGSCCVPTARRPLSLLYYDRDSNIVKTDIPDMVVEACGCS
Description: as §3

BMP5 = target: T9, BMP5 (UniProt P22003 317-454, limits assumed); test: SPR (Biacore), anti-Fc capture of receptor
T9 sequence (looked up): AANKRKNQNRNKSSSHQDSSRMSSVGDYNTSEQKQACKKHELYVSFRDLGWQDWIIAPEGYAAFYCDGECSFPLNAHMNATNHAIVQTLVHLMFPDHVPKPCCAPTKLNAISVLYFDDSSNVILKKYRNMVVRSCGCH
Description: as §3

BMP6 [11] = target: T5, BMP6; test: SPR (Biacore), anti-Fc capture of receptor; remark: listed apart in the source
Description: as §3

activin B [12] = target: T2, activin B; test: SPR (Biacore), anti-Fc capture of receptor; remark: listed apart in the source
Description: as §3

BMP10 [13] = target: B1; test: SPR (Biacore), anti-Fc capture of receptor; remark: listed apart in the source
Description: as §3

GDF11 [14] = target: B5; test: SPR (Biacore), anti-Fc capture of receptor; remark: listed apart in the source
Description: as §3

GDF8 [15] = target: T6, GDF8; test: SPR (Biacore), anti-Fc capture of receptor; remark: listed apart in the source
Description: as §3

activin A [16] = target: T3, activin A; test: SPR (Biacore), anti-Fc capture of receptor; remark: listed apart in the source
Description: as §3

activin AC = target: T10, activin AC (UniProt P08476 311-426; P55103 237-352); test: SPR (Biacore), anti-Fc capture of receptor
T10 sequence (looked up) 1: T3 sequence (looked up)
T10 sequence (looked up) 2: T8 sequence (looked up)
Description: as §3

GDF3 [17] = target: T7, GDF3; test: SPR (Biacore), anti-Fc capture of receptor; remark: listed apart in the source
Description: as §3

ActRIIA-mFc [18] = target: T1, ActRIIA-mFc; test: SPR (Biacore), ligand amine-coupled on CM5 chip
Description: as §1

B1
binding result (ActRIIA-mFc [1]): binds

B2
binding result (activin B [2]): no binding
Kd (activin A [3]): 20 nM
koff (activin A [3]): 0.012 s⁻¹
kon (activin A [3]): 580000 M⁻¹ s⁻¹

B3
Kd (BMP9 [4]): 3.4 nM
Kd (BMP6 [5]): 2.7 nM
koff (BMP6 [5]): 0.0055 s⁻¹
kon (BMP6 [5]): 2e+06 M⁻¹ s⁻¹
Kd (activin B [2]): 0.006 nM
koff (activin B [2]): 4e-05 s⁻¹
kon (activin B [2]): 7.1e+06 M⁻¹ s⁻¹
Kd (BMP10 [6]): 0.074 nM
koff (BMP10 [6]): 0.0041 s⁻¹
kon (BMP10 [6]): 5.6e+07 M⁻¹ s⁻¹
Kd (GDF11 [7]): 0.003 nM
koff (GDF11 [7]): 0.00011 s⁻¹
kon (GDF11 [7]): 3.8e+07 M⁻¹ s⁻¹
Kd (GDF8 [8]): 0.55 nM
koff (GDF8 [8]): 0.00021 s⁻¹
kon (GDF8 [8]): 390000 M⁻¹ s⁻¹
Kd (activin A [3]): 0.012 nM
koff (activin A [3]): 0.00015 s⁻¹
kon (activin A [3]): 1.3e+07 M⁻¹ s⁻¹
Kd (GDF3 [9]): 4.9 nM
koff (GDF3 [9]): 0.017 s⁻¹
kon (GDF3 [9]): 3.4e+06 M⁻¹ s⁻¹

B4
Kd (BMP9 [10]): > 1.4 nM
Kd (activin C): 6.9 nM
koff (activin C): 0.0024 s⁻¹
kon (activin C): 350000 M⁻¹ s⁻¹
Kd (BMP5): 57 nM
koff (BMP5): 0.0085 s⁻¹
kon (BMP5): 150000 M⁻¹ s⁻¹
Kd (BMP6 [11]): 5.3 nM
koff (BMP6 [11]): 0.0063 s⁻¹
kon (BMP6 [11]): 1.2e+06 M⁻¹ s⁻¹
Kd (activin B [12]): 0.017 nM
koff (activin B [12]): 0.0002 s⁻¹
kon (activin B [12]): 1.2e+07 M⁻¹ s⁻¹
Kd (BMP10 [13]): 0.19 nM
koff (BMP10 [13]): 0.0028 s⁻¹
kon (BMP10 [13]): 1.5e+07 M⁻¹ s⁻¹
Kd (GDF11 [14]): 0.008 nM
koff (GDF11 [14]): 0.00075 s⁻¹
kon (GDF11 [14]): 9.5e+07 M⁻¹ s⁻¹
Kd (GDF8 [15]): 0.27 nM
koff (GDF8 [15]): 0.001 s⁻¹
kon (GDF8 [15]): 3.7e+06 M⁻¹ s⁻¹
Kd (activin A [16]): 0.043 nM
koff (activin A [16]): 0.0019 s⁻¹
kon (activin A [16]): 4.4e+07 M⁻¹ s⁻¹
Kd (activin AC): 0.22 nM
koff (activin AC): 0.00057 s⁻¹
kon (activin AC): 2.6e+06 M⁻¹ s⁻¹
Kd (GDF3 [17]): 4.5 nM
koff (GDF3 [17]): 0.01 s⁻¹
kon (GDF3 [17]): 2.3e+06 M⁻¹ s⁻¹

B5
binding result (ActRIIA-mFc [18]): binds

B6
binding result (BMP9 [10]): no binding
binding result (activin C): no binding
binding result (BMP5): no binding
binding result (BMP6 [11]): no binding
binding result (activin B [12]): no binding
binding result (BMP10 [13]): no binding
binding result (GDF11 [14]): no binding
binding result (GDF8 [15]): no binding
binding result (activin A [16]): no binding
binding result (activin AC): no binding
binding result (GDF3 [17]): no binding
